The values that follow come from publication PMC10540216, “Activity Guided Azide-methyllysine Photo-trapping for Substrate Profiling of Lysine Demethylases” (Journal of the American Chemical Society, 2023).

The assay deals with KDM4A-I71AzF. Description: CASI: photo-crosslinking with HEK293T cell extracts, StrepTactin enrichment and LC-MS/MS proteomics.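 Also: lysates from HEK293T cells pretreated with a KDM4 inhibitor to raise proteome methylation, affinity-purified after ±UV, gel-resolved, trypsin-digested, with exclusive unique peptides per protein averaged per condition.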 To be noted: sheet "Final results but with 0.01". Format: binding, human.

B1: KRT83_HUMAN (protein, UniProt P78385 1-493, looked up)
Keratin, type II cuticular Hb3: MTCGFNSIGCGFRPGNFSCVSACGPRPSRCCITAAPYRGISCYRGLTGGFGSHSVCGGFRAGSCGRSFGYRSGGVCGPSPPCITTVSVNESLLTPLNLEIDPNAQCVKQEEKEQIKSLNSRFAAFIDKVRFLEQQNKLLETKLQFYQNRECCQSNLEPLFAGYIETLRREAECVEADSGRLASELNHVQEVLEGYKKKYEEEVALRATAENEFVALKKDVDCAYLRKSDLEANVEALIQEIDFLRRLYEEEIRILQSHISDTSVVVKLDNSRDLNMDCIVAEIKAQYDDIATRSRAEAESWYRSKCEEMKATVIRHGETLRRTKEEINELNRMIQRLTAEVENAKCQNSKLEAAVAQSEQQGEAALSDARCKLAELEGALQKAKQDMACLIREYQEVMNSKLGLDIEIATYRRLLEGEEQRLCEGVEAVNVCVSSSRGGVVCGDLCVSGSRPVTGSVCSAPCNGNLVVSTGLCKPCGQLNTTCGGGSCGQGRH
For the molecule B1, the “Fold change (+UV/-UV)” value is listed as 10.

B2: PYC_HUMAN (protein, UniProt P11498 21-1178, looked up)
Pyruvate carboxylase, …: TAPAASPNVRRLEYKPIKKVMVANRGEIAIRVFRACTELGIRTVAIYSEQDTGQMHRQKADEAYLIGRGLAPVQAYLHIPDIIKVAKENNVDAVHPGYGFLSERADFAQACQDAGVRFIGPSPEVVRKMGDKVEARAIAIAAGVPVVPGTDAPITSLHEAHEFSNTYGFPIIFKAAYGGGGRGMRVVHSYEELEENYTRAYSEALAAFGNGALFVEKFIEKPRHIEVQILGDQYGNILHLYERDCSIQRRHQKVVEIAPAAHLDPQLRTRLTSDSVKLAKQVGYENAGTVEFLVDRHGKHYFIEVNSRLQVEHTVTEEITDVDLVHAQIHVAEGRSLPDLGLRQENIRINGCAIQCRVTTEDPARSFQPDTGRIEVFRSGEGMGIRLDNASAFQGAVISPHYDSLLVKVIAHGKDHPTAATKMSRALAEFRVRGVKTNIAFLQNVLNNQQFLAGTVDTQFIDENPELFQLRPAQNRAQKLLHYLGHVMVNGPTTPIPVKASPSPTDPVVPAVPIGPPPAGFRDILLREGPEGFARAVRNHPGLLLMDTTFRDAHQSLLATRVRTHDLKKIAPYVAHNFSKLFSMENWGGATFDVAMRFLYECPWRRLQELRELIPNIPFQMLLRGANAVGYTNYPDNVVFKFCEVAKENGMDVFRVFDSLNYLPNMLLGMEAAGSAGGVVEAAISYTGDVADPSRTKYSLQYYMGLAEELVRAGTHILCIKDMAGLLKPTACTMLVSSLRDRFPDLPLHIHTHDTSGAGVAAMLACAQAGADVVDVAADSMSGMTSQPSMGALVACTRGTPLDTEVPMERVFDYSEYWEGARGLYAAFDCTATMKSGNSDVYENEIPGGQYTNLHFQAHSMGLGSKFKEVKKAYVEANQMLGDLIKVTPSSKIVGDLAQFMVQNGLSRAEAEAQAEELSFPRSVVEFLQGYIGVPHGGFPEPFRSKVLKDLPRVEGRPGASLPPLDLQALEKELVDRHGEEVTPEDVLSAAMYPDVFAHFKDFTATFGPLDSLNTRLFLQGPKIAEEFEVELERGKTLHIKALAVSDLNRAGQRQVFFELNGQLRSILVKDTQAMKEMHFHPKALKDVKGQIGAPMPGKVIDIKVVAGAKVAKGQPLCVLSAMKMETVVTSPMEGTVRKVHVTKDMTLEGDDLILEIE
For the molecule B2, the “Fold change (+UV/-UV)” value worked out at 0.3333.
